Measurements published in patent US11312760 (NEWSOARA BIOPHARMA, dated 2022).

These binders were tested against authentic SARS-CoV-2 (live virus) (assay: cell-based or functional assay).

| Binder | EC50 of neutralization of live virus in Vero-E6 cells |
| --- | --- |
| Antibody 15A7 (recombinantly expressed in IgG1 form) (antibody, V domains shown) VH: QVQLVQSGAEVKKPGASVKVSCKASGYTFTSYDINWVRQASGQGLEWMGWMNPNSANPGYAQKFQGRVTMTRNTSISTAFMELSSLRSDDTAVYYCARARVTIHYDILTGYYSNAFDIWGQGTMVAVSS VL: DIQMTQSPSSLSASVGDRVTITCRASQTISSYLNWYQQKPGKAPKLLIYAASSLQSGVPSRFSGSGSGADFTLTISSLQPEDFATYYCQQSYTTFMYTFGQGTMLEIK | 0.61 µg/mL |
| Antibody 37G2 (recombinantly expressed in IgG1 form) (antibody, V domains shown) VH: QVQLVQSGAEVKKPGSSVKVSCKASGGTFSSYAITWVRQAPGQGLEWMGGIIPIFGTANFAQKFQGRVTITADESTSTAYMELSSLRSEDTAVYYCAHLGGFADPFDYWGQGTLVTVSS VL: EIVLTQSPATLSLSPGERATLSCRASQSVSNYLAWYQQKAGQAPRVLIYDAFNRATGIPARFSGSGSGTDFTLTISSLEPEDFAVYYCQQRSNWPPRITFGQGTRLEIK | 1.37 µg/mL |
| Antibody 31C2 (recombinantly expressed in IgG1 form) (antibody, V domains shown) VH: QVQLVQSGAEVKKPGSSVKVSCKASGGTFSSYAISWVRQAPGQGLEWMGGIIPIFGTTNYAQKFQGRVTITADESTSTAYMELNSLRSEDTAVYYCAGRSAYGDKGYYFDYWGQGTLVTVSS VL: EIVLTQSPATLSLSPGERATLSCRASQSVSNFLAWYQQKPGQAPRLLIYDASNRATGIPARFSGSGSGTDFTLTISSLQPEDFAVYYCQQRSNWPPQETFGQGTKVEIK | 0.57 µg/mL |
